Data taken from US20170158747A1 (Novartis, published 2017).

Key:
Test in all cases: cell-based or functional assay
[1] = molecular target: T1, mouse IL10 receptor on mouse cells (whole blood, colon) (mouse, UniProt Q61727 17-575; Q61190 20-349)
T1 sequence (looked up) 1: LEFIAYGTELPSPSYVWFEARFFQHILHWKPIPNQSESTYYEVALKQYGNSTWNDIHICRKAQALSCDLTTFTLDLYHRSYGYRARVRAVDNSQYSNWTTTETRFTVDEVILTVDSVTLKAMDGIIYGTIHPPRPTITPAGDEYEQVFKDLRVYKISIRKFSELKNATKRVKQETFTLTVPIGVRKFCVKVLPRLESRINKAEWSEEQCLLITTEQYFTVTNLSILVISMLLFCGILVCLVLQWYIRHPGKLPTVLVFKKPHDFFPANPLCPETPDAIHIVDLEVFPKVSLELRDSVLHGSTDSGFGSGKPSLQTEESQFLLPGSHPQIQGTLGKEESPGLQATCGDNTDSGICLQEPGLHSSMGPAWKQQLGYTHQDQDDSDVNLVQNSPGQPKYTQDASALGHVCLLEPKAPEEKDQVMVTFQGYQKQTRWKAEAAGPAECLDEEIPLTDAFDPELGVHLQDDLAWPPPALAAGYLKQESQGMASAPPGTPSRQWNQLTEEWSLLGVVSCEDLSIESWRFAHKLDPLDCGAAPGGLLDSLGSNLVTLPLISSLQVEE
T1 sequence (looked up) 2: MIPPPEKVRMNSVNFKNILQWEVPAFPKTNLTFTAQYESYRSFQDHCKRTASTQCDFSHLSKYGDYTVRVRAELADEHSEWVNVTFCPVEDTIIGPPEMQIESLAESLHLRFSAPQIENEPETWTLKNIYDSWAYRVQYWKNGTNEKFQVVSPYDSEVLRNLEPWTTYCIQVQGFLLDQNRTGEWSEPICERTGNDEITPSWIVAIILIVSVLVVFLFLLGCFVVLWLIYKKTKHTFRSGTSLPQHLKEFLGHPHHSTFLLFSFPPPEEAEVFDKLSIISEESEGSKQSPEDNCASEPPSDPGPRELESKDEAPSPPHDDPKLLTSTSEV

[2] = molecular target: T2, human IL10 receptor (IL10R1/R2 receptor complex) on human whole blood cells (human, UniProt Q13651 22-578; Q08334 20-325)
T2 sequence (looked up) 1: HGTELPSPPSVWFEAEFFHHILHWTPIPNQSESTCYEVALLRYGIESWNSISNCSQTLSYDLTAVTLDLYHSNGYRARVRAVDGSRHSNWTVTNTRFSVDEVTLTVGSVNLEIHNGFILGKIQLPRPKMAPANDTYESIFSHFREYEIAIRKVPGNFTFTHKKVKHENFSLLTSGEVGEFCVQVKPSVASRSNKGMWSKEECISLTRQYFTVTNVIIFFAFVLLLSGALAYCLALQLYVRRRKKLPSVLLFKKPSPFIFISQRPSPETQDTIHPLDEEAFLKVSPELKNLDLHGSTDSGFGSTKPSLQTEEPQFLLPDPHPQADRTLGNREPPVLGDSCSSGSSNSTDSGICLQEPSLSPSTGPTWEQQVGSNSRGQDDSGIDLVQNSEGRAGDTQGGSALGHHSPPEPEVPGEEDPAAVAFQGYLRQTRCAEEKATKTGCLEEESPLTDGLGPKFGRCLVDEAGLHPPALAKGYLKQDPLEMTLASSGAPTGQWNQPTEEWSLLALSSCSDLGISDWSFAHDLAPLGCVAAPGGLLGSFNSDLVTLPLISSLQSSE
T2 sequence (looked up) 2: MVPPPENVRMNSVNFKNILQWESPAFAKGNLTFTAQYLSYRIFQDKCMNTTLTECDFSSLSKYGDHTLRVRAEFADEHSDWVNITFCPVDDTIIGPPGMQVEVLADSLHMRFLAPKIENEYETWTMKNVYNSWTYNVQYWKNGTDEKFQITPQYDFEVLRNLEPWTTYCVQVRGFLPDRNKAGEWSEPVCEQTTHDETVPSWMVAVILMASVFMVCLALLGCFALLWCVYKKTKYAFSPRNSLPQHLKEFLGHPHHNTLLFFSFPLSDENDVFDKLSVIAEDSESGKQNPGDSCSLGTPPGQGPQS

[3] = molecular target: T3, cynomolgus monkey IL10 receptor on cynomolgus whole blood cells (cynomolgus monkey, UniProt A0A2K5WJ66 22-576; A0A7N9D6W2 20-323)
T3 sequence 1: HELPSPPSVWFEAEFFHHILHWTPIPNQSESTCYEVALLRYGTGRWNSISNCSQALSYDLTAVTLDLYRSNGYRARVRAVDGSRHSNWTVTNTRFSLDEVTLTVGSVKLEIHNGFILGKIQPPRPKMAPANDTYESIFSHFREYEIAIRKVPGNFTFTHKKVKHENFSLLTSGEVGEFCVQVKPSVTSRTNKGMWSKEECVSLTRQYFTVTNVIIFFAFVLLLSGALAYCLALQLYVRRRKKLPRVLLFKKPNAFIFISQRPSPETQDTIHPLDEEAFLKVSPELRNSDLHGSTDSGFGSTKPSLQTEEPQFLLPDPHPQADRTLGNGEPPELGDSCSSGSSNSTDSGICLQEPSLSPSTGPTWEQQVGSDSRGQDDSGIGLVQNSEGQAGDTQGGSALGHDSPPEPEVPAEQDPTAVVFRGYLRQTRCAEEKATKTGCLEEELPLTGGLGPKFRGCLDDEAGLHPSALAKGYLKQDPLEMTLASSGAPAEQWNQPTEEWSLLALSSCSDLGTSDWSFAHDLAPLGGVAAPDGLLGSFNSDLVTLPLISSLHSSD
T3 sequence 2: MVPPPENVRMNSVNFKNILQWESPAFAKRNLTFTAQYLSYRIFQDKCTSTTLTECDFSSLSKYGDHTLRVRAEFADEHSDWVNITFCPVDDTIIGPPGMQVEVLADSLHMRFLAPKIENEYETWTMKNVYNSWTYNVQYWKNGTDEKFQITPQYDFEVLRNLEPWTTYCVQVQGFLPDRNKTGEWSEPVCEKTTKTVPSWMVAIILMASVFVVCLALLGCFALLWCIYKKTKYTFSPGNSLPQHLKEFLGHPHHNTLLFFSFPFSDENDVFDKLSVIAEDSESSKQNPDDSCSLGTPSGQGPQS

B1: IgGIL10M13 (antibody)
heavy: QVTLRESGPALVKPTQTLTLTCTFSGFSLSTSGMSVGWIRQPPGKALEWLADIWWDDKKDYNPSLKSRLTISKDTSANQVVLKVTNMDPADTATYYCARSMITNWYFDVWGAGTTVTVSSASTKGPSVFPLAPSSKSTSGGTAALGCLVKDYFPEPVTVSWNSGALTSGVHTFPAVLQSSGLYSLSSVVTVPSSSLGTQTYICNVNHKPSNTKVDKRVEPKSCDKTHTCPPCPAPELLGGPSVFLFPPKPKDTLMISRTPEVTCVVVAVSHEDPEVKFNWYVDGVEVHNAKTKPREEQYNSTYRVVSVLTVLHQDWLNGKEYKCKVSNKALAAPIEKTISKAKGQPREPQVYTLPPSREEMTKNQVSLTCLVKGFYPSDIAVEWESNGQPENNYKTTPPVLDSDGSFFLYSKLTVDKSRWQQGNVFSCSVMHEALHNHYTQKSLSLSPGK
light: DIQMTQSPSTLSASVGDRVTITCKAQLSSPGQGTQSENSCTHFPGNLPNMLRDLRDAFSRVKTFFQMKDQLDNLLLKESLLEDFKGYLGCQALSEMIQFYLEEVMPQAENQDPDIKAHVNSLGENLKTLRLRLRRCHRFLPCENGGGSGGKSKAVEQVKNAFNKLQEKGIYKAMSEFDIFINYIEAYMTMKIRNVGYMHWYQQKPGKAPKLLIYDTSKLASGVPSRFSGSGSGTAFTLTISSLQPDDFATYYCFQGSGYPFTFGGGTKLEIKRTVAAPSVFIFPPSDEQLKSGTASVVCLLNNFYPREAKVQWKVDNALQSGNSQESVTEQDSKDSTYSLSSTLTLSKADYEKHKVYACEVTHQGLSSPVTKSFNRGEC
Q: Which results are given for B1?
A: IC50, inhibition of LPS-induced TNFα production, ex vivo mouse whole blood [1]: 0.012 nM; IC50, inhibition of LPS-induced TNFα production, ex vivo human whole blood [2]: 0.0252 nM; IC50, inhibition of LPS-induced TNFα production, ex vivo cynomolgus whole blood [3]: 0.00667 nM
